Results reported in IntAct's records for PubMed 17548821.

Tests used:
lrp8_human LRP8 = lrp8_human LRP8 (UniProt Q14114)
vldlr_human VLDLR = vldlr_human VLDLR (UniProt P98155)

lrp8_human LRP8, sequence (Q14114 whole entry): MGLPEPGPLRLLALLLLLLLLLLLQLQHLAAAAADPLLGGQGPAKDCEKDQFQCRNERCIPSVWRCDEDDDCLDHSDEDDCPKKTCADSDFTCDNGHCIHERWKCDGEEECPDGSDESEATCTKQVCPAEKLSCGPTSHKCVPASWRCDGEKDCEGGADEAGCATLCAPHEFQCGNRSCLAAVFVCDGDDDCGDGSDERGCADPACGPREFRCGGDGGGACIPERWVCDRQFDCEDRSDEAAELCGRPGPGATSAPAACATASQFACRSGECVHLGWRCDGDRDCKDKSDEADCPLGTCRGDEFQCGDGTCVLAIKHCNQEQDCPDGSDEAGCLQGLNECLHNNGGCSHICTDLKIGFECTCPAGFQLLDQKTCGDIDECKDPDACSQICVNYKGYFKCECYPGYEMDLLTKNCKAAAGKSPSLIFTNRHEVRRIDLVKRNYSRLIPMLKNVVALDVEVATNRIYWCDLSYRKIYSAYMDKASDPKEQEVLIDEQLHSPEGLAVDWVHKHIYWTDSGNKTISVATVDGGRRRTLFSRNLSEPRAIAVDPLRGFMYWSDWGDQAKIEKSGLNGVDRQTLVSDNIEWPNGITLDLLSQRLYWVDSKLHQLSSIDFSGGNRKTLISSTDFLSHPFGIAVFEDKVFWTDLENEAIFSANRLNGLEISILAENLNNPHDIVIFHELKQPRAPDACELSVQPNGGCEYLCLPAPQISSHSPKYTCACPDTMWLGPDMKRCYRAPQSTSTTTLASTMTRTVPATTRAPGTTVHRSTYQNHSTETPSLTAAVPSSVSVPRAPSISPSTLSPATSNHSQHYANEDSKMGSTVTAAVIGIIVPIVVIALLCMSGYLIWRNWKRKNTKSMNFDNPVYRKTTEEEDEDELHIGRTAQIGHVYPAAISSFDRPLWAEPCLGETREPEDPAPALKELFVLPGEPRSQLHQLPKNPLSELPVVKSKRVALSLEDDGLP

For “Reelin (Mus musculus), Q60841 K2360A;K2467A”, the “effect of a mutation on the interaction” value (lrp8_human LRP8) was “disrupting interaction strength”.
Reelin (Mus musculus), Q60841 K2360A was tested, and the “effect of a mutation on the interaction” value (lrp8_human LRP8) was “disrupting interaction strength”.
In the case of Reelin (Mus musculus), Q60841 K2467A, the “effect of a mutation on the interaction” value (lrp8_human LRP8) is reported as “disrupting interaction strength” and the “effect of a mutation on the interaction” value (vldlr_human VLDLR) is reported as “disrupting interaction strength”.
